Source: paper PMC3864903

Key:
[1] = molecular target: rNav1.4 voltage-gated sodium channel α subunit (rat) (UniProt P15390)
[2] = molecular target: rNav1.4 voltage-gated sodium channel α subunit (rat) (UniProt P15390); remark: listed apart in the source
[3] = molecular target: rNav1.4 voltage-gated sodium channel α subunit (rat) (UniProt P15390); remark: listed apart in the source
[4] = molecular target: rNav1.4 voltage-gated sodium channel α subunit (rat) (UniProt P15390); remark: listed apart in the source

Row | Substance | Use-dependent current decline on repetitive depolarisations at 1 Hz (10% after the second pulse, cumulative rundown 20%) [1] | Use-dependent current rundown on repetitive depolarisations at 5 Hz (data not shown) [1] | Recovery from inactivation F (fast) [2] | Recovery from inactivation τ (fast) [2] | Recovery from inactivation τ (slow) [2] | Activation V1/2 of sodium currents, two electrode voltage clamp, co-expression in oocytes [3] | Inactivation V1/2 (steady-state inactivation) [3] | Slowing of the current recovery after 1 ms, against WT β1 [4] | Inactivation rate τ (inac) of the peak current at −20 mV [2] | Current recovery from inactivation after a recovery interval of 1 ms [4]
1 | rNavβ1 point mutant C43A (from UniProt Q00954 19-218) (natural protein) | 20% | 20% | 0.89 | 2.7 ms | 636 ms | -29 mV | -59.1 mV | 95% | – | –
2 | rNavβ1 point mutant G33M (from UniProt Q00954 19-218) (natural protein) | – | – | – | – | 760 ms | -32.5 mV | -56 mV | – | 0.46 ms | –
3 | rNavβ1 point mutant R89A (from UniProt Q00954 19-218) (natural protein) | – | – | 0.92 | 2.3 ms | 376 ms | -33 mV | -62.6 mV | 90% | 2.6 ms | –
4 | rNavβ1 point mutant Y32A (from UniProt Q00954 19-218) (natural protein) | – | – | – | – | 743 ms | -34 mV | -56 mV | – | 0.48 ms | –
5 | rNavβ1 voltage-gated sodium channel accessory subunit, wild type (from UniProt Q00954 19-218) (natural protein) | – | – | 0.93 | 1.7 ms | 236 ms | -33.4 mV | -61.8 mV | – | 0.6 ms | 50%
